# Assay results: US6989362B1, “Methods of treating dopamine dysregulation using agents that regulate phosphorylation/dephosphorylation in dopamine signaling” (The Rockefeller University, priority 1999, dated 2006)
# Target: PKA (Homo sapiens, UniProt P17612)
# Assay: Inhibition of PKA phosphorylation of substrates in vitro (kinetic analysis)
# Format: biochemical
# Procedure: Tissue was processed as described in the legend to FIGS. 1a-1e and immunoblotted for phospho-Thr75 (FIG. 2a), total DARPP-32 (FIG. 2b), or phospho-Thr34 (FIG. 2c). […] Purified DARPP-32 was phosphorylated to a stoichiometry of 0.93 mol/mol using native cdk1/cyclin B purified from sea star. Phospho-Thr75 DARPP-32 was precipitated from the reaction mixture with 5% TCA, resuspended in 1M Tris-HCl (pH 8.8), and dialyzed against 10 mM HEPES (pH 7.4). […] FIG. 2g depicts a Lineweaver-Burki kinetic analysis of PKA phosphorylation of ARPP-21 in the presence of 0 (◯), 5 (□), 10 (⋄), or 15 (Δ) μM Phospho-Thr75 DARPP-32.
molecule,measurement,setting,value
"phospho-Thr75 DARPP-32: the phosphorylated form of Thr75 DARPP-32; inhibitor of PKA (protein, listed as Homo sapiens, phosphorylated Thr75) MDPKDRKKIQFSVPAPPSQLDPRQVEMIRRRRPTPAMLFRLSEHSSPEEEASPHQRASGEGHHLKSKRPNPCAYTPPSLKAVQRIAESHLQSISNLNENQASEEEDELGELRELGYPREEDEEEEEDDEEEEEEEDSQAEVLKVIRQSAGQKTTRGLGLEGPWERPPPLDESERDGGSEDQVEDPALSEPGEEPQRPSPSEPGR","rates of phosphorylation by PKA of inhibitor-1, ARPP-21, synapsin I and histone H1","15 μM phospho-Thr75 DARPP-32, purified catalytic subunit of PKA",dramatic reduction
same,mechanism of PKA inhibition,"ARPP-21 phosphorylation, 0-15 μM inhibitor",linear competitive single site mechanism
